Assay results published in publication PMC2633459 (Molecular Vision, 2009).
“And” between values parts separate entries of the source, which are not always exact repeats. Equal values may be shown once.

B1: doubly deamidated mutant βA3 Q85E/Q180E (natural protein, human, UniProt P05813 1-215, looked up)
chain: METQAEQQELETLPTTKMAQTNPTPGSLGPWKITIYDQENFQGKRMEFTSSCPNVSERSFDNVRSLKVESGAWIGYEHTSFCGQEFILERGEYPRWDAWSGSNAYHIERLMSFRPICSANHKESKMTIFEKENFIGRQWEISDDYPSLQAMGWFNNEVGSMKIQSGAWVCYQYPGYRGYEYILECDHHGGDYKHWREWGSHAQTSQIQSIRRIQQ
notes: human βA3-crystallin with Q85E and Q180E (mimic of deamidation), recombinant; Homo-dimer by SEC-MALS at 37 °C; precipitates at 55 °C when alone; also called DM βA3; βA3 DM; source: E. coli, purified (successive ion-exchange chromatography)
B2: wild type human βB1-crystallin (natural protein, UniProt P53674 1-252, looked up)
chain: MSQAAKASASATVAVNPGPDTKGKGAPPAGTSPSPGTTLAPTTVPITSAKAAELPPGNYRLVVFELENFQGRRAEFSGECSNLADRGFDRVRSIIVSAGPWVAFEQSNFRGEMFILEKGEYPRWNTWSSSYRSDRLMSFRPIKMDAQEHKISLFEGANFKGNTIEIQGDDAPSLWVYGFSDRVGSVKVSSGTWVGYQYPGYRGYQYLLEPGDFRHWNEWGAFQPQMQSLRRLRDKQWHLEGSFPVLATEPPK
notes: human βB1-crystallin, wild type, recombinant; Mixture of monomers and dimers at the concentrations of the 1:1 experiments; dimer at the higher concentration of the 5:1 experiment; source: E. coli, purified (successive ion-exchange chromatography)

Columns and labels:
[1] = target: B2; experiment: SEC-MALS; 1:1 molar ratio of βA3 (WT or DM) with βB1 or βB2, final 0.4–0.5 mg/ml, incubated 90 min at 55 °C; filtered before injection; same buffer; conditions: both partners purified
[2] = target: the molecule itself; experiment: SEC-MALS; 5:1 molar ratio of βB1 to βA3 (to favour the βB1 dimer), injected immediately (0 min) or after 30 min at 37 °C; same buffer
[3] = target: the molecule itself; experiment: SEC-MALS; each crystallin alone, incubated 90 min at 37 °C; Superose 12 10/300 GL; pH 6.8, 29 mM Na2HPO4, 29 mM NaH2PO4, 100 mM KCl, 1 mM EDTA, 1 mM DTT
[4] = target: B1; experiment: native gel or EMSA; blue-native PAGE, 4%–12% Bis-Tris gel, pH 7.0, 200 V, 4 °C; mixtures incubated at 37 °C for 60 min before the gel; conditions: both partners purified

Row | binding result [1] | binding result [4] | Binder | stoichiometry N [2] | stoichiometry N [3]
1 | binds |  | wild type human βA3-crystallin (natural protein, UniProt P05813 1-215, looked up, human βA3-crystallin, wild type, recombinant; no tag is mentioned; also called WT βA3; βA3 WT; source: E. coli, purified (successive ion-exchange chromatography)) METQAEQQELETLPTTKMAQTNPTPGSLGPWKITIYDQENFQGKRMEFTSSCPNVSERSFDNVRSLKVESGAWIGYEHTSFCGQQFILERGEYPRWDAWSGSNAYHIERLMSFRPICSANHKESKMTIFEKENFIGRQWEISDDYPSLQAMGWFNNEVGSMKIQSGAWVCYQYPGYRGYQYILECDHHGGDYKHWREWGSHAQTSQIQSIRRIQQ | 2 | 
2 |  |  | B1 |  | 2
3 |  | binds | wild type human βB2-crystallin (natural protein, UniProt P43320 1-205, looked up, human βB2-crystallin, wild type, recombinant; source: E. coli, purified (successive ion-exchange chromatography)) MASDHQTQAGKPQSLNPKIIIFEQENFQGHSHELNGPCPNLKETGVEKAGSVLVQAGPWVGYEQANCKGEQFVFEKGEYPRWDSWTSSRRTDSLSSLRPIKVDSQEHKIILYENPNFTGKKMEIIDDDVPSFHAHGYQEKVSSVRVQSGTWVGYQYPGYRGLQYLLEKGDYKDSSDFGAPHPQVQSVRRIRDMQWHQRGAFHPSN |  | 2 and 4
4 |  |  | B2 |  | 2
